Experimental data published in patent US20210355220A1 (TIKCRO TECHNOLOGIES, published 2021).

Legend:
[1] = target: T1, human CTLA-4 expressed on cells (human, UniProt P16410 36-223); assay: flow cytometry on HEK293-hCTLA-4 cells, reference ipilimumab
T1 construct: whole, on cells; On stably or transiently transfected HEK293 cells; also called hCTLA-4; HEK293-hCTLA-4 cells
Experimental: To test the binding of antibodies to CTLA-4 under more physiological conditions, the binding of CTLA-4 antibodies to cell-surface CTLA-4 was tested. […] The surface expression of hCTLA-4 in the obtained cell line was tested using a commercial anti-CTLA-4 antibody and compared to the parent cell line (HEK293 without transfection). […] The anti-CTLA-4 antibodies were incubated in serial dilution concentrations with the HEK293-hCTLA-4 cells for 1 hour on ice. Following a wash step, an anti-human antibody conjugated to ALEXA FLUOR® 647® was added for an additional hour. The cells were washed, and propidium iodide (PI) was added to exclude dead cells. The fluorescent signal was measured using FACS and analyzed. Dead cells were removed based on the PI signal. The population was gated based on forward and side scatter (FSC and SSC) parameters, and doublets were removed. The Median Fluorescent Intensity (MFI) of the appropriate channel was calculated for the live single cells from each group. The MFI was plotted versus antibody concentration in Prism software (V6.01) and kinetic parameters were obtained using a curve fit dose response function with four parameters. […] The lower EC₅₀ values indicate increased binding affinity to cell surface hCTLA-4.

[2] = target: T1, human CTLA-4 expressed on cells; assay: cell-based or functional assay
[3] = target: T2, CTLA-4-his reduced with 100 mM DTT to its monomeric form (human, UniProt P16410 36-162); assay: ELISA, plate coated with DTT-reduced CTLA-4-his (monomer), anti-human-HRP, OD450; the box beside the curves does not name the quantity, the value lies at the half-maximal point of the curve (OD450 0.2 to 1.4)
T2 construct: Same bought protein as the dimer, reduced with DTT before coating; also called monomer hCTLA-4; not shown: his tag
T2 sequence (P16410 36-162 limits assumed): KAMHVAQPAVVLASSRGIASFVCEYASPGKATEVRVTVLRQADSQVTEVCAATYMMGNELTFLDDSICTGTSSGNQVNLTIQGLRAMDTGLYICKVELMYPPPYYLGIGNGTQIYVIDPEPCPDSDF
Experimental: hCTLA-4 can exist in monomer and dimer forms on the cell surface. […] The recombinant protein was incubated for 10 minutes with 100 mM DTT to reduce the protein to its monomeric form. […] The plates were coated overnight at 4° C., followed by a wash step and blocking with 20% milk for 1 hour at 37° C. […] The plate was washed and a secondary anti-human-HRP antibody (Jackson) was added at a 1:5000 dilution. A TMB solution was added, followed by stop solution and the OD at 450 nm was measured. Data was analyzed with Prism software.

T1 sequence (P16410 36-223): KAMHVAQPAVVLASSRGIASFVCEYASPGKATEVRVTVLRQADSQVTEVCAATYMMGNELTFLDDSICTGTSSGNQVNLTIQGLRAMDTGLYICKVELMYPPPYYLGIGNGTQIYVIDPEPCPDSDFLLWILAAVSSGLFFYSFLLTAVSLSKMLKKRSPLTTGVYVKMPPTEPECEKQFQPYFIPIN

B1: Ab55h (antibody, V domains shown)
VH: QVQLQESGPGLVKPSETLSLTCAVSGYSISGDYYWGWIRQPPGKGLEWIGSIYHSGYTYYNPSLKSRVTISVDTSKNQFSLKLSSVTAADTAVYYCARDSGWYVIAFDYWGQGTLVTVSS
VL: EIVMTQSPATLSVSPGERATLSCRASQSVSSNLAWYQEKPGQAPRLLIYGASTRATGIPARFSGSGSGTEFTLTISSLQSEDFAVYYCQQYNNWPPLTFGGGTKVEIK
notes: Human form, compared with an hIgG1 isotype control
[1]
  Ratio Ipilimumab:Ab55h of EC50: 6.1 fold
[2]
  SHP1 reporter IC50: 0.059 nM
  SHP1 reporter IC50, Ratio Ab55h:Ipilimumab: 4.5 fold
[3]
  EC50: 0.002 nM
